In US20250236644A1 (published 2025) one finds Kd data, which are given here for 7 molecules.

Read-outs that look alike come from different tables or passages of the source. Ends that are not written are not given here. A value given as a limit tells only on which side of the number the result lay.

Assay [1] addresses T1, TAMRA-labeled effector peptide cs221B (5(6)-TAMRA label coupled on resin after synthesis).
T1 peptide: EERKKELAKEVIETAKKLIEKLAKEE
Put plainly: fluorescence polarization.

The target of assay [2] is T1, TAMRA-labeled effector peptide cs221B. Put plainly: fluorescence polarization.
The target of assay [3] is T2, TAMRA-labeled effector peptide cs074B (5(6)-TAMRA label coupled on resin after synthesis).
T2 peptide: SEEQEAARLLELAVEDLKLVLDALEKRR
Put plainly: fluorescence polarization.

In assay [4] the target is T3, TAMRA-labeled effector peptide cs201B (5(6)-TAMRA label coupled on resin after synthesis).
T3 peptide: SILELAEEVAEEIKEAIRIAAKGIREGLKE
Put plainly: fluorescence polarization.

Assay [5] has as its target cs221-V111L-A114T DEER site pair 1. Put plainly: fluorescence polarization; MTSL-labeled, site pair 1.
In assay [6] the target is T2, TAMRA-labeled effector peptide cs074B. Put plainly: fluorescence polarization.
Assay [7] concerns the target T4, TAMRA-labeled effector peptide js007B (5(6)-TAMRA label coupled on resin after synthesis).
T4 peptide: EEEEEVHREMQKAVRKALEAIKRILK
Put plainly: fluorescence polarization.

B1: swapped target hinge csw13 (designed binder)
chain: MSGNEEVKKLVEEAKKYLKEAEEYIKKAKKTGNEELLEKALKLLEKALELVKKAIELDPNNKEAIEQAVEIARALNEVAELLIEEAKKTGNEELLEKALEALEAANEALKLAIENNENDKELLAEIAVELAEVGVLLAEVLIEEAKKTGDPELLKLALEVLEAAVEALELALKLDPNNEEAVELAEEAAKLLEEVAKELKEEAKKTGDPELEKLAKEAEELAKRAKELAERQRGSGSHHWGSTHHHHHH
For B1, the Kd in assay [1] is less than 1 nM.

B2: hinge cs221 (designed binder)
chain: MSGEMKEEIRRLAEELRERTKDEEVRELAREAARLAEESDDEEVKEVVKKALEAALKSKDEEVIRLLLLAAVLAAAAARSGSPEEKLEIAKKALELAMKSKDEEVIRLALLAAVLAARSDDEEVLKKVKEALEKAMESKDVEEIRERLREAVEVARAGSGSHHWGSTHHHHHH
On to B2, for which, in assay [2], the Kd was determined as 1.5 nM.

B3: swapped target hinge csw20 (designed binder)
chain: MSGMEEVKELVEKAEELAKEAEELIKKAKKTGNPELLKEALRKLKEAVELAKEAVELDPEHEEAIELLARLAEKLLEVAKLLIELAKKTGNPELLKEALRALKEAREALRLAAEHAPEDAKLLARLAARLAELALLIAKILIELAKKTGNPELLLKALKVLTLAVEAVEAALEADPRLKEAVRVAKELAEVLKELAKLAKELAKKTGNEELKEAAKEAEEVAKRAEELAREAEGSGSHHWGSTHHHHHH
For B3, the Kd in assay [3] was less than 1 nM; in assay [4] it was 12 nM; in assay [1], 1500 nM.

B4: hinge cs201 (designed binder)
chain: MSGDEEVQEAVERAEELREEAEELIKKARKTGDPELLRKALEALKEAVRAVREAIKRNPDNEEAIKTALRLARELRKVAKELIERARKTGDAELLKKALEAARVAVEAVRLAAEYNKENAEKMAELLVELAELAREVADVLIELAEKTGDPELLKKALEVLEEAVEAVRLAIEYDPDHEEAVETAKRLAEELRKVAELLEERAKETGDPELQELAKRAKEVADRARELAKKSNGSGSHHWGSTHHHHHH
Take B4: the Kd in assay [4] is 17 nM; in assay [1], 4370 nM.

B5: TAMRA-labeled peptide cs221B (peptide)
peptide: {5(6)‑TAMRA}-EERKKELAKEVIETAKKLIEKLAKEE
As to B5, the Kd in assay [5] was found to be 0.4 nM.

B6: hinge cs074 (designed binder)
chain: MSGDEEVQEAVERAEELREEAEELIKKARKTGDPELLRKALEALKEAVRAVKEAIKRNPDNEEAVKTAVRLARELLKVAEELKERAEKTGDPRLLLLAAEAIAWAIEAVFLAAKASENTEGALEAARAAVKLAEVAKRIAKLLQRDAKKEGDPELLKLALRALELAVRAVELAIKENPDNEEAVETAKRLAEELRKVAELLEERAKETGDPELQELAKRAKEVADRARELAKKSNPNNGSGSHHWGSTHHHHHH
For the molecule B6, the Kd in assay [6] was 1 nM.

B7: hinge js007 (designed binder)
chain: MSGSEEVNERVKQLAEKAKEATDKEEVIEIVKELAELAKQSTDPNLVAEVVRALTEVAKTSTDTELIQEIVKVLLELARRLTDPQLLLEVLKSIAELLKELAEKTGNETAKLAALVAQIAAEVVEMALRAEKTHPGSEIVKLAVELVQKVAEIVLIAAQLMLDKPNSDEVRKVLKEVEKVAREALKALREAKRHPDSQKARDEIKEASQKAEEVKERIERAQEGSGSHHWGSTHHHHHH
In assay [7], B7 displayed an equilibrium dissociation constant (Kd) of 6 nM.
